Experimental data from patent US20080274112A1, “Nogo Receptor Antagonists” (priority 2003, published 2008).

Target: T1, mouse NgR3 (Mus musculus, UniProt Q8K0S5)
T1 sequence (Q8K0S5 25-424): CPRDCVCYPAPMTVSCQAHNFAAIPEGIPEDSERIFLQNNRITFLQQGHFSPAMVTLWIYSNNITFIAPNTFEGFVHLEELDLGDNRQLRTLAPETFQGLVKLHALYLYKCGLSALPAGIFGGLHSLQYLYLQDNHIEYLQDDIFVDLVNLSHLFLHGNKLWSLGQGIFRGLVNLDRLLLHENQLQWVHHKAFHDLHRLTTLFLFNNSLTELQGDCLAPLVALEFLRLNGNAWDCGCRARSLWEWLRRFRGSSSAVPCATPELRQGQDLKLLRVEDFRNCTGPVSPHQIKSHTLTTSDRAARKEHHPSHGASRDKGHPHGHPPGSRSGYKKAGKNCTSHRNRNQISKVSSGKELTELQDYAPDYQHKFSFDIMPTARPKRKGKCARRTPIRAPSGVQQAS
Test: Antibody binding to mouse Nogo receptor-3
Details: species not stated

B1: 7E11: murine monoclonal anti-Nogo receptor-1 antibody, IgG1 kappa, ATCC PTA-4587; immunogen rat Nogo receptor-1 residues 110-125 (antibody, V domains shown)
VH: VQLQESGAELVMPGASVKMSCKASGYTFTDYWMHWVKQRPGQGLEWIGAIDPSDSYSSYNQNFKGKATLTVDGSSSTAYMQLSSLTSEDSAVYYCARRITEAGAWFAYWGQGTTVT
VL: DVVMTQTPLSLPVSLGDQASISCRSSQSLVHSNGNTYLHWYLQKPGQSPKLLIYKVSNRFSGVPDRFSGSGSGTDFTLKISRVDAEDLGVYFCSQSTHVPFTFGGGTKLEIKRADAAPTVSISHH
- binding to NgR3: does not bind well
